Test results from patent US20240059789A1 (Janssen / Centocor, published 2024).

B1: PSMB892 (antibody, human IgG1, lambda, L234A L235A, V domains shown)
VH: EVQLVESGGGVVQPGRSLRLSCAASGFTFITYGMHWVRQAPGKGLEWVAVVSFDESNKYYADSVKGRFTISRDNSKNTLYLQMNSLRAEDTAVYYCARALRDGNNWDYFNGMDVWGQGTTVTVSS
VL: QSVLTQPPSVSGAPGQRVTISCTGSSSNIGADYDVHWYQHLPGTAPKLLIYGNSNRPSGVPDRFSGSKSGTSASLAITGLQAEDETDYYCQSYDSSLSGWVFGGGTKLTVLG
B2: PSMB896 (antibody, human IgG1, lambda, L234A L235A, V domains shown)
VH: EVQLVESGGGLVQPGGSLRLSCAASGFTFSSYAMSWVRQAPGKGLEWVSAISGGIGSTYYADSVKGRFTISRDNSKNTLWLQMNSLRAEDTAVYYCAKDGVGATPYYFDYWGQGTLVTVSS
VL: QSVLTQPPSVSAAPGQKVTISCSGSSSNIGINYVSWYQQLPGTAPKLLIYDNNKRPSGIPDRFSGSKSGTSATLGITGLQTGDEADYYCGTWDSSLSAVVFGGGTKLTVLG
B3: PSMB1069 (bispecific antibody, human IgG1, kappa, L234A L235A)
heavy: not shown
light: not shown
chain: QVQLVESGGGEVQPGRSLRLSCAASGFSFSGYGMHWVRQAPGKGLEWVAVMSYDGSNRFYVDSVRGRFSISRDNSKNTLYLQMNSLRPEDTAVYYCARDTVWGSHPDAFDIWGQGTVVTVSSGGSEGKSSGSGSESKSTGGSQSVLTQPPSVSVAPGQTARITCGGNNSGSKSVHWYQQKPGQAPVLVVYDDSDRPSGIPERFSGSNSGNTATLTISRVEAGDEADYYCQVWDSSSDHGVFGGGTKLTVLEPKSSDKTHTCPPCPAPEAAGGPSVFLFPPKPKDTLMISRTPEVTCVVVSVSHEDPEVKFNWYVDGVEVHNAKTKPREEQYNSTYRVVSVLTVLHQDWLNGKEYKCKVSNKALPAPIEKTISKAKGQPREPQVYVLPPSREEMTKNQVSLLCLVKGFYPSDIAVEWESNGQPENNYLTWPPVLDSDGSFFLYSKLTVDKSRWQQGNVFSCSVMHEALHNHYTQKSLSLSPG
notes: Null CD3 arm; one PSMA scFv; also called HC1 (ZWA): B23B62-Fab

What was measured:
[1] = biological target: T1, Human PSMA on prostate cancer cell lines (C4-2B, 22RV1) (human, UniProt Q04609 1-750); experiment: flow cytometry on 22RV1 cells; 22RV1 cells
T1 construct: Endogenous PSMA of the human cell lines; also called PSMA+ cells; PSMA-expressing cell lines
T1 sequence (Q04609 whole entry): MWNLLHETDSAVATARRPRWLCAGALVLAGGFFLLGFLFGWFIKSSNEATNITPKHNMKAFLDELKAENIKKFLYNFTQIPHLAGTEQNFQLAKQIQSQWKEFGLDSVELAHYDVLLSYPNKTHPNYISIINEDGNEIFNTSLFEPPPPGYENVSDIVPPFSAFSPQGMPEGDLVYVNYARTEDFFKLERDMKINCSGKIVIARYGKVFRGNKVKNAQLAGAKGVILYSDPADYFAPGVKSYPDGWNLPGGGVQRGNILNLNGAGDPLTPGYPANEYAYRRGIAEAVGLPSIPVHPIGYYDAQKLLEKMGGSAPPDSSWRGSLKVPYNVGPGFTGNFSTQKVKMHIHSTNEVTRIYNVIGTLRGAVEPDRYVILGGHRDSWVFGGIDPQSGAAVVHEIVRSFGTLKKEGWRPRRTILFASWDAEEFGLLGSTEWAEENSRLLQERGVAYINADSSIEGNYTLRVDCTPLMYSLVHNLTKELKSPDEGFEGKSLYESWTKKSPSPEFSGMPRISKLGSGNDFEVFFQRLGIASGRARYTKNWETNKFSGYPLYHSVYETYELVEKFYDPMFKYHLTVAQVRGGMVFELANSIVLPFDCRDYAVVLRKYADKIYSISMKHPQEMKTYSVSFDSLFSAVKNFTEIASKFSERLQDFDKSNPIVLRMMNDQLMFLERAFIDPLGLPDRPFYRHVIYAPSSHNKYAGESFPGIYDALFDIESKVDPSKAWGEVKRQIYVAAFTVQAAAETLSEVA

[2] = biological target: T1, Human PSMA on prostate cancer cell …; experiment: flow cytometry on C4-2B cells
Description: (§1) Selected anti-PSMA antibodies were evaluated for binding to commercial prostate cancer cell lines. C4-2B cells were originally developed at MD Anderson and are derived from LNCaP FGC grown in vivo and metastasize to bone marrow (Thalmann, et al 1994, Cancer Research 54, 2577-81). 22Rv1 cells are a human prostate carcinoma epithelial cell line derived from a xenograft that was serially propagated in mice after castration-induced regression and relapse of the parental, androgen-dependent CWR22 xenograft. 22RV1 and C4-2B cells were plated at 50,000 cells per well in 50 μl of assay medium (RPMI, 10% HI FBS) in V bottom plates. Serial dilutions of antibodies were prepared in assay medium with 50 μl of antibody dilutions added to the plates containing cells. The plates were incubated for 60 min at 37° C. at which time 100 μl of staining buffer (Becton Dickinson Cat #554657) was added to all wells of each plate. The plates were centrifuged at 300×G for 5 minutes and the medium was removed from the wells. 200 μl of staining buffer was added to all wells of each plate. The plates were centrifuged at 300×G for 5 minutes and the medium was removed from the wells. 50 μl of 2 μg/ml AlexaFluor647-labeled goat anti-human Fc was added to all wells of the plates and the plates were incubated for 30 minutes at 4° C. 150 μl of staining buffer was added to all wells of each plate. The plates were centrifuged at 300×G for 5 minutes and the medium was removed from the wells.

[3] = biological target: T2, Avi-6xHis-GS-cyno PSMA ECD (PSMW1) (Macaca fascicularis, UniProt Q04609 48-750 (human entry)); experiment: SPR Biacore 8K, mAb captured by anti-Fc, antigen in solution
T2 construct: also called PSMW1.009; cy PSMA
T2 chain: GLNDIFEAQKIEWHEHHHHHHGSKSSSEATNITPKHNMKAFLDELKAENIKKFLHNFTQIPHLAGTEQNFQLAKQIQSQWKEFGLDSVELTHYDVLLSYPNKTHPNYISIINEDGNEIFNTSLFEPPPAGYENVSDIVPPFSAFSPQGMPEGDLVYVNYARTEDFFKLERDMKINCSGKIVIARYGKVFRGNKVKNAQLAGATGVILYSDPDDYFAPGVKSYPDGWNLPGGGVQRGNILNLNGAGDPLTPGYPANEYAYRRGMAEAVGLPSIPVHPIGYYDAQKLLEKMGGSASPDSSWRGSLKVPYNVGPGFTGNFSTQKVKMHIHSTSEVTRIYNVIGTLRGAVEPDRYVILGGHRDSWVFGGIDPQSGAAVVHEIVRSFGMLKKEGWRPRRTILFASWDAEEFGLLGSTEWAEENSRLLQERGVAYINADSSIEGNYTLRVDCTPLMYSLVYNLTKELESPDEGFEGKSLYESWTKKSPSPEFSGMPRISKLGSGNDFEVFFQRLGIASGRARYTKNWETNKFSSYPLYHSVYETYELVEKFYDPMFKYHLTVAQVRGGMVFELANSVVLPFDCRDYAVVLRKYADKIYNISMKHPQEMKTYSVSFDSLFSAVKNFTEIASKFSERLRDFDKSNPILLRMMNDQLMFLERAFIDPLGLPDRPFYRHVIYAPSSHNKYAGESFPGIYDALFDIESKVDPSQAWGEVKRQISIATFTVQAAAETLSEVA
Description: (§2) The association and dissociation were monitored for 3 and 15 minutes, respectively, using a flow rate of 50 μL/min. Raw binding data was referenced by subtracting the analyte binding signals from blanks and analyzed using a 1:1 Langmuir binding model using the Biacore Insight evaluation software to obtain the kinetics, which were used to calculate the binding affinity. The anti-PSMA were captured using an anti-human Fc antibody and the antigens were injected in solution.

[4] = biological target: T3, Human PSMA ECD (Lys44-Ala750), N-6xHis (PSMW39) (human, UniProt Q04609 44-750); experiment: as above
T3 construct: also called PSMW39.002; hu PSMA
T3 sequence (Q04609 other isoform, or with tags, fused parts or gaps): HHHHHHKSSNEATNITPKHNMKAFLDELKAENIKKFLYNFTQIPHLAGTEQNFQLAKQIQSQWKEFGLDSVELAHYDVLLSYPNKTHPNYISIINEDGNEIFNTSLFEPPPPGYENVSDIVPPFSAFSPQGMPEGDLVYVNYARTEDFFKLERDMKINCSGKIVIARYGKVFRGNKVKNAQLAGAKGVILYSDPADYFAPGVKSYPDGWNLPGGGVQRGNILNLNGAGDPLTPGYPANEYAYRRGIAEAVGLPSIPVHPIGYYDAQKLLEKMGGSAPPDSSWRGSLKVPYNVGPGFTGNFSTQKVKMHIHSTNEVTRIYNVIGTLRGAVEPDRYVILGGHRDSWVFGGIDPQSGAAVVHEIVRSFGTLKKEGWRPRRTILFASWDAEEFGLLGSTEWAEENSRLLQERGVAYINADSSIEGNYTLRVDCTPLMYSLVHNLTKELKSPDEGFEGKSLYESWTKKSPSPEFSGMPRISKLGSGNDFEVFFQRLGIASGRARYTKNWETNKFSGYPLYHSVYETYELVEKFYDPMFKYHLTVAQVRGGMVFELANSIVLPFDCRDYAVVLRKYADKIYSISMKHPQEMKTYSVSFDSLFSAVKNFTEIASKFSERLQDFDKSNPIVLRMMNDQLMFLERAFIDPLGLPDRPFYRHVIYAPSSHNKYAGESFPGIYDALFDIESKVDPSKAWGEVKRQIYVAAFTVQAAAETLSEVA
Description: as §2

[5] = biological target: Avi-6xHis-GS-mouse PSMA (45-752) (PSMW29) (Mus musculus, UniProt O35409 45-752); experiment: as above
Description: as §2

[6] = biological target: T1, Human PSMA on prostate cancer cell …; experiment: flow cytometry on 22RV1 cells
Description: as §1

[7] = biological target: T1, Human PSMA on prostate cancer cell …; experiment: binding curves on C4-2B cells, 37 C, 1 h incubation, four-parameter fit
Description: Molecule concentrations ranged from 500-0 nM over 12-points at 3-fold dilution. […] Values reported in the Table 32 were generated by fitting the data to a four-parameter function for ligand binding generating values for y-min, y-max, EC50, and Hill. EC90 were calculated using the equation EC90=(90[…](100−90))\hat{ }(1/Hill)*EC50.

Binder | EC50 [1] [nM] | EC50 [2] [nM] | Kd [3] [nM] | Kd [4] [nM] | Kd [5] [nM] | EC50 [6] [nM] | fold binding signal (Y-max) over the average of the molecules [7] [fold]
B1 | > 60 | 22.4 | 5.67 | 3.22 | 0.404 |  | 
B2 |  | 25.8 | 0.658 | ≤ 0.0876 | 1.36 | 1.24 | 
B3 |  |  |  |  |  |  | 2
